How the values were obtained:
[1] = target: BAFF (Homo sapiens (Human)) (UniProt Q9Y275); experiment: BIAcore 3000, solution-phase equilibrium binding; free BAFF read on a BCMA-Fc chip; apparent KD
[2] = target: BAFF (Homo sapiens (Human)) (UniProt Q9Y275); experiment: BIAcore 3000, solution-phase equilibrium binding, fit to a quadratic equation

Substance	Kd [1] [µM]	stoichiometry (BAFF:BAFF-R:Fc) (BAFF:BAFF-R:Fc) [2]
vBAFF-R(R3-A49):Fc (from UniProt Q96RJ3 2-48) (Fc fusion)	< 200	1
vBAFF-R(R3-A72):Fc (from UniProt Q96RJ3 2-71) (Fc fusion)	< 200	1
